Laboratory results: patent US8518892B2, “Methods to treat symptoms of pathophysiology related to body mass” (Board of Supervisors of Louisiana State University and …, priority 2005, dated 2013)

Tested on: DIO C57BL/6J mice
Assay: Enho 1 ip for 7 days in DIO C57BL/6J mice (Examples 23-25)
Type: in vivo, mouse
Description: (§1) The effect of Enho-1 upon weight loss was tested over the course of 7 days using DIO C57BL/6J mice (Charles River Laboratories). The mice were fed a high fat diet (Research Diets 12492) for 10 weeks prior to the start of the experiment, which was begun when the mice were 15-16 weeks of age. Control mice received vehicle only while test mice each received doses of either 90 nmol/kg/d, 900 nmol/kg/d or 9000 nmol/kg/d. The injections were given as 3 ip injections at 0800, 1200 and 1600 h for 7 days. On day 8, the mice were given the 0800 h injection and were sacrificed 1-3 h later.
as §1, with “insulin and glucose” for “weight loss”, “later at which time blood samples were collected and levels of insulin and glucose determined.” for “later.”
The HOMA-IR for each treatment was calculated using the following formula: ((glucose mg/dL÷18)×(insulin ng/ml×25.05))÷22.5
as §1, with “levels of blood lipids” for “weight loss”, “later at which time blood samples were collected and levels of trigylcerides determined. Triglycerides were measured using a Triglyceride L-Type TG H kit (Wako Diagnostics).” for “later.”

[1] = 90 nmol/kg/d ip, listed as Enho-1
[2] = 900 nmol/kg/d ip, listed as Enho-1
[3] = 9000 nmol/kg/d ip, listed as Enho-1

B1: Enho 1: human Enho 1, a 76 amino acid peptide having the sequence SEQ ID NO: 14 (peptide, listed as Homo sapiens)
chain: MGAAISQGALIAIVCNGLVGFLLLLLWVILCWACHSRSADVDSLSESSPNSSPGPCPEKAPPPQKPSHEGSYLLQP
B1 was tested, and the Blood glucose (90 nmol/kg/d ip) was 182 mg/dL, the Delta body weight (90 nmol/kg/d ip) was 6.6% and the HOMA-IR (90 nmol/kg/d ip) was 15. For the same molecule, the “HOMA-IR decrease as compared to the control group” value (“HOMA-IR decrease” below) (90 nmol/kg/d ip) was 15%, the Insulin (90 nmol/kg/d ip) was 1.3 ng/mL and the “TG (blood triglyceride level)” value (90 nmol/kg/d ip) was 22.5 mg/dL. For the same molecule, the “Weight (pre-treatment)” value (90 nmol/kg/d ip) was 36.5 g, the “Weight (termination)” value (90 nmol/kg/d ip) was 34.0 g and the Blood glucose [1] was 182 ± 17 mg/dL. The HOMA-IR [1] was 15 ± 2, the “HOMA-IR decrease” value [1] was “(↓ 32%)” and the Insulin [1] was 1.3 ± 0.1 ng/mL. The “TG (blood triglyceride level)” value [1] was 22.5 ± 6.0 mg/dL, the “Weight (pre-treatment)” value [1] was 36.5 ± 1.3 g and the “Weight (termination)” value [1] was 34.0 ± 1.0 g. The Blood glucose (900 nmol/kg/d ip) was 212 mg/dL, the Delta body weight (900 nmol/kg/d ip) was 7.1% and the HOMA-IR (900 nmol/kg/d ip) was 29. The “HOMA-IR decrease” value (900 nmol/kg/d ip) was 29%, the Insulin (900 nmol/kg/d ip) was 2.2 ng/mL and the “TG (blood triglyceride level)” value (900 nmol/kg/d ip) was 38.0 mg/dL. For the same molecule, the “Weight (pre-treatment)” value (900 nmol/kg/d ip) was 37.9 g, the “Weight (termination)” value (900 nmol/kg/d ip) was 36.0 g and the Blood glucose [2] was 212 ± 11 mg/dL. The HOMA-IR [2] was 29 ± 4, the Insulin [2] was 2.2 ± 0.3 ng/mL and the “TG (blood triglyceride level)” value [2] was 38.0 ± 12.5 mg/dL. For the same molecule, the “Weight (pre-treatment)” value [2] was 37.9 ± 1.4 g, the “Weight (termination)” value [2] was 36.0 ± 1.2 g and the Blood glucose (9000 nmol/kg/d ip) was 190 mg/dL. For the same molecule, the Delta body weight (9000 nmol/kg/d ip) was 6.7%, the HOMA-IR (9000 nmol/kg/d ip) was 16 and the “HOMA-IR decrease” value (9000 nmol/kg/d ip) was 27%. The Insulin (9000 nmol/kg/d ip) was 1.3 ng/mL, the “TG (blood triglyceride level)” value (9000 nmol/kg/d ip) was 18.5 mg/dL and the “TG decrease from the control” value (9000 nmol/kg/d ip) was 19%. The “Weight (pre-treatment)” value (9000 nmol/kg/d ip) was 33.8 g, the “Weight (termination)” value (9000 nmol/kg/d ip) was 31.6 g and the Blood glucose [3] was 190 ± 16 mg/dL. The HOMA-IR [3] was 16 ± 4, the “HOMA-IR decrease” value [3] was “(↓ 27%)” and the Insulin [3] was 1.3 ± 0.2 ng/mL. The “TG (blood triglyceride level)” value [3] was 18.5 ± 1.7 mg/dL, the “TG decrease from the control” value [3] was “(↓ 19%)” and the “Weight (pre-treatment)” value [3] was 33.8 ± 0.8 g. For the same molecule, the “Weight (termination)” value [3] was 31.6 ± 0.7 g.
